Laboratory results as given in US20190049459A1 (TOKYO INSTITUTE OF TECHNOLOGY, published 2019).

Key:
DNA-PKcs = target: T1, DNA-PKcs (human, UniProt P78527 1-4128); assay: anti-FLAG immunoprecipitation from HEK 293 T lysate, SDS-PAGE; band identified by mass spectrometry (Table 1)
T1 construct: Endogenous protein co-precipitated from HEK 293 T lysate and identified by mass spectrometry; also called DNK-PKcs; PRKDC

BIP = target: T2, BIP (human, UniProt P11021 19-654); assay: as above
T2 construct: Endogenous protein co-precipitated from HEK 293 T lysate; also called GRP78

ANT2-HA = target: T3, ANT2-HA (human, UniProt P05141 1-298); assay: co-expression of ANT2-HA and FLAG-tagged uORF44 in HEK 293 T cells, immunoprecipitation by one tag, western blot by the other tag
T3 construct: Co-expressed with FLAG-tagged uORF44 in HEK 293 T cells; not shown: HA tag fused to the subtype
T3 sequence (looked up): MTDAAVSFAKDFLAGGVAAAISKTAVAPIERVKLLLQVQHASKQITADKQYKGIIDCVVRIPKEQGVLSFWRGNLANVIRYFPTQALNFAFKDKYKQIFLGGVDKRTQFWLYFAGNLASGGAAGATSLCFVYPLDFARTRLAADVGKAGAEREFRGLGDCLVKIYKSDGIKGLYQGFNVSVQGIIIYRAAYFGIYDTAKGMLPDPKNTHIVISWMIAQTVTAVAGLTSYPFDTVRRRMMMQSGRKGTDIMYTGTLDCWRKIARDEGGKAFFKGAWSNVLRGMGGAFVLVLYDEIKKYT
Method: The expression vector was transfected into HEK 293 T cells cultured in a 10 cm culture dish using Opt-MEM (Life Technologies) and FuGENE-HD (Promega). After 48 hours of transfection, the cells were washed with PBS and dissolved using 1 mL of lysis buffer (20 m Tris-HCl pH 7.5, 150 mM NaCl, 0.5% NP 40, 1×Complete EDTA free (Roche) 10 mM Glycerol 2-phosphate, 1 mM NaVO4) and allowed to stand on ice for 20 minutes. Thereafter, the cells were centrifuged at 4° C., 21,130×g for 30 minutes, and the supernatant was used for immunoprecipitation. 50 μL of anti-[…] antibody beads (Wako, 016-22784) or 50 μL of Monoclonal Anti-HA-Agarose (Sigma, A 2095) was used in the immunoprecipitation. The supernatant was mixed with antibody beads lysate, and slowly mixed at 4° C. for 1 hour. After completion of the antigen-antibody reaction, it was washed 3 times with 1 mL of a lysis buffer, and then the protein was eluted with 50 μL 1×SDS sample buffer. The eluted sample was subjected to electrophoresis by SDS-PAGE followed by western blotting or SYPRO Ruby staining. The western blotting was performed as described in paragraph “(5) Western blotting.” The SYPRO Ruby staining was performed using SYPRO Ruby protein gel stain (Life Technologies, S 12000), in accordance with a product manual. […]

T2 sequence (P11021 19-654 limits assumed): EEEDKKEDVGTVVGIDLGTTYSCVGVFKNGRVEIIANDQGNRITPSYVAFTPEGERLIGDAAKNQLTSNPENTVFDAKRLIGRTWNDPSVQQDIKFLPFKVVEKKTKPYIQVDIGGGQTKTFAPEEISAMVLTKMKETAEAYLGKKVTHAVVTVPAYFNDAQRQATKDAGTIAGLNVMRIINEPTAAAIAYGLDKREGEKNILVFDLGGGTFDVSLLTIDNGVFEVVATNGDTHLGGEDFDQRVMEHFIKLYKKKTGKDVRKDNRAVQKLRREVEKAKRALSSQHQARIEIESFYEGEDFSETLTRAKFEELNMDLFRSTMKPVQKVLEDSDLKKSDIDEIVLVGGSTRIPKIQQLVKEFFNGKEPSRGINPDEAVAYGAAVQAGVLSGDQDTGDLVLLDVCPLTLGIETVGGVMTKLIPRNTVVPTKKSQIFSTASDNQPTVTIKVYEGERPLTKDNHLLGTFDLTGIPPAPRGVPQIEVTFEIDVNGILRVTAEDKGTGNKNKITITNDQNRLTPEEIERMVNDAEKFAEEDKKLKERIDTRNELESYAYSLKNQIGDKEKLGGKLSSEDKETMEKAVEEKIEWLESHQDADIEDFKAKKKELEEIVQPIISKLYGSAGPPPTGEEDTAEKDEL
T1 sequence (P78527 whole entry): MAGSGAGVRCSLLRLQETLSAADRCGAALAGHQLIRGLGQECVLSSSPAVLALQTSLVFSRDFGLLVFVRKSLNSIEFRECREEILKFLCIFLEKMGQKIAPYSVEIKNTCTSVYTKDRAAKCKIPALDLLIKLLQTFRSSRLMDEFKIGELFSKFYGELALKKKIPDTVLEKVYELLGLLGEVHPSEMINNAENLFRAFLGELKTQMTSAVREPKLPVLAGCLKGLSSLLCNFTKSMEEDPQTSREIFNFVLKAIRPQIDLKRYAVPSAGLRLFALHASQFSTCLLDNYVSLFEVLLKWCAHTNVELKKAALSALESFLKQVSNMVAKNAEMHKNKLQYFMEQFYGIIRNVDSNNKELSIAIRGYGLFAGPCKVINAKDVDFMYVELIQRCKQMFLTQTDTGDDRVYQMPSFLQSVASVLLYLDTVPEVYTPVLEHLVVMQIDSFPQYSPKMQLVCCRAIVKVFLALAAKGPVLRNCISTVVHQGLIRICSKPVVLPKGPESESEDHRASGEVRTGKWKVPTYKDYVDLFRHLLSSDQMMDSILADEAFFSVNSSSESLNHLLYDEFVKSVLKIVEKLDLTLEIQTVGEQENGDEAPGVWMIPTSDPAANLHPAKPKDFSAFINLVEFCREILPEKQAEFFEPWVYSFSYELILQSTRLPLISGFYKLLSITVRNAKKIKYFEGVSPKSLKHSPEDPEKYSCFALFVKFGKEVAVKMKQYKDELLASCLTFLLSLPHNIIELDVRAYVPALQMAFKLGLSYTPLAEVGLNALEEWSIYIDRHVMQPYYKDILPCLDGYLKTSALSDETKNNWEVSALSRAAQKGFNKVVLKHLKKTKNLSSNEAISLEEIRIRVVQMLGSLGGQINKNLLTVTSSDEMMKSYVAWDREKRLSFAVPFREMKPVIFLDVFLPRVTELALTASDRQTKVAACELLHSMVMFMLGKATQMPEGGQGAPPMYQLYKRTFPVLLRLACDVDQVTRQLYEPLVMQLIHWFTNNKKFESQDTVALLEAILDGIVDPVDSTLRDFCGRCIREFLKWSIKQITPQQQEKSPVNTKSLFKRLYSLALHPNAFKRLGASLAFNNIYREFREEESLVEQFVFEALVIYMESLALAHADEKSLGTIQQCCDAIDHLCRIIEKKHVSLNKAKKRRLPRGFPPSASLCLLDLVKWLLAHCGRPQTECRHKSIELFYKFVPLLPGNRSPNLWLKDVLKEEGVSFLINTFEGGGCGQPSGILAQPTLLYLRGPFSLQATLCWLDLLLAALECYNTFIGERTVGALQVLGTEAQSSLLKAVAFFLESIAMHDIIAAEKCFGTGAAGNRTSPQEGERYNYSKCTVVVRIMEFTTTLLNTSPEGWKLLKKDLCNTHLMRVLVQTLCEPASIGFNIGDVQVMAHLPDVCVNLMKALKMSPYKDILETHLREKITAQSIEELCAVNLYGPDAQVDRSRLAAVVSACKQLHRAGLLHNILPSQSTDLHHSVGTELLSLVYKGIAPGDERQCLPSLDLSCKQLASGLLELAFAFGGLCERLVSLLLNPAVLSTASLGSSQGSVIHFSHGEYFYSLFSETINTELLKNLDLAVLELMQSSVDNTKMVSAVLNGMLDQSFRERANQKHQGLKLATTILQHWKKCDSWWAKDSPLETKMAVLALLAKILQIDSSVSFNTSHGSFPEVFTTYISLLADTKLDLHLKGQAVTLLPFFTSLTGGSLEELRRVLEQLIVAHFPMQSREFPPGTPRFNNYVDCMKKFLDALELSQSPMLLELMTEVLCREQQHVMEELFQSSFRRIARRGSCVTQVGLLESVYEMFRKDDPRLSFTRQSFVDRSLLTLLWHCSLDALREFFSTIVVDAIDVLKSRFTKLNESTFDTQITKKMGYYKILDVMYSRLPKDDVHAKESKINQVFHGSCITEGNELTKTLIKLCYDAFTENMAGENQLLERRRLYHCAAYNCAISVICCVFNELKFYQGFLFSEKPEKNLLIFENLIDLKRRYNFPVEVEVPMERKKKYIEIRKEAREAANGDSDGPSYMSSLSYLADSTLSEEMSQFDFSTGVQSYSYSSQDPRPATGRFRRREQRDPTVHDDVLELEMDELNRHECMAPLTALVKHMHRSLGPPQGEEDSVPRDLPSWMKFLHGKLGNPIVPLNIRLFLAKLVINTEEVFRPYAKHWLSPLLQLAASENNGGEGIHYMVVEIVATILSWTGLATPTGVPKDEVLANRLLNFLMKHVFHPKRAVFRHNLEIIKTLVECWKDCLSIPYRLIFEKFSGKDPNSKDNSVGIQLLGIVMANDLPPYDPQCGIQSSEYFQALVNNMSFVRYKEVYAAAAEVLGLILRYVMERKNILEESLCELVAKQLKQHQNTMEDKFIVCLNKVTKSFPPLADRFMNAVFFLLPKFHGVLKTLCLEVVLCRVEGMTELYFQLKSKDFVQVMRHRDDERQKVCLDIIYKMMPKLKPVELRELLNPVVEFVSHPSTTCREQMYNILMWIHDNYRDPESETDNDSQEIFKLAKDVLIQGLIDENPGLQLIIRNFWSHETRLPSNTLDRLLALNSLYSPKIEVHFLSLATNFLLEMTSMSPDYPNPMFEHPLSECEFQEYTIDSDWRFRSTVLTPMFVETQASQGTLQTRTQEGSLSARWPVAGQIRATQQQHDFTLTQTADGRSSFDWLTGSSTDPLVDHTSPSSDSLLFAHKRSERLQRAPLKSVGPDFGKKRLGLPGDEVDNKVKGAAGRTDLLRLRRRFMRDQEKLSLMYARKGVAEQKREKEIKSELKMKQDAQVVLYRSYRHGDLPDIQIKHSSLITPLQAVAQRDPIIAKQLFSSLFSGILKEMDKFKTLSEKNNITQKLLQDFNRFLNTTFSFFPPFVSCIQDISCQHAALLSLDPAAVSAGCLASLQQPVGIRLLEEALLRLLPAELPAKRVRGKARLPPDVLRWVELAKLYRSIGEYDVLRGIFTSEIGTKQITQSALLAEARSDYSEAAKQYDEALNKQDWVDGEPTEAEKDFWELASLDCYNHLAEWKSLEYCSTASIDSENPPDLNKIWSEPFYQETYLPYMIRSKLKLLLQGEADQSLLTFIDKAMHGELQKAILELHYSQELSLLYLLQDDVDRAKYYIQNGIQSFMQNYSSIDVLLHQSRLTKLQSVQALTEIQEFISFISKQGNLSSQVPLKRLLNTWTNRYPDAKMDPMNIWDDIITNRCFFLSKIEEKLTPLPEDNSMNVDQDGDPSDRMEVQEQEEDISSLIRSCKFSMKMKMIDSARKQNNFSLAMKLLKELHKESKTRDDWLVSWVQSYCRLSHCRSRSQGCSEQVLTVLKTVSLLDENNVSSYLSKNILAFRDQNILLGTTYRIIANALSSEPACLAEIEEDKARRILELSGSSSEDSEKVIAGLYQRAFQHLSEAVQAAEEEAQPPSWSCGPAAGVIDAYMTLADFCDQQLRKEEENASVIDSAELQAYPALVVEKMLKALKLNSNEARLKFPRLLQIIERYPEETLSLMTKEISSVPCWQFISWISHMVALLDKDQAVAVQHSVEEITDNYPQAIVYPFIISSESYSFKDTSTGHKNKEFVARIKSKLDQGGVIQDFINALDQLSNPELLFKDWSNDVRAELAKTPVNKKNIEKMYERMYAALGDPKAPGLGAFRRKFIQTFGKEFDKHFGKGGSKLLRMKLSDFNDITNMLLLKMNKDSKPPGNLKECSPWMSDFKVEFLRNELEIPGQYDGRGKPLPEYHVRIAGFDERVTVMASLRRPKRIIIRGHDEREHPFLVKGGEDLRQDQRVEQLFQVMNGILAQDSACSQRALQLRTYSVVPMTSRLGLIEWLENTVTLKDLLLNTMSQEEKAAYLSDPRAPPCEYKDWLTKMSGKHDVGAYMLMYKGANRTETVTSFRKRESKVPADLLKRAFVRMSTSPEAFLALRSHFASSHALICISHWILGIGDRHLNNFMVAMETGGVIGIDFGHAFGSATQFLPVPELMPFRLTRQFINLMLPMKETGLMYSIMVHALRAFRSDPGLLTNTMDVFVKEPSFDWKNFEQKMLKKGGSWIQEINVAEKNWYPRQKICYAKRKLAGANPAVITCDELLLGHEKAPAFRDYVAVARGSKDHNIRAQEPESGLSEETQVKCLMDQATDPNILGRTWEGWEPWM

binding result (DNA-PKcs): binds
binding result (BIP): binds
binding result (ANT2-HA): binds
B1: FLAG-tagged uORF44p (protein derived from uORF44, an upstream ORF in the mRNA of ARHGEF9) (other, not shown: small tags and cut ends)
chain: MDSLTEQRLTSPNLPAPHLEHYSVLHCTMTLDVQTVVVFAVIVVLLLVNVILMFFLGTR
notes: Expressed from a pcDNA3 FLAG vector in HEK 293 T cells; also called uORF44 protein; mental activity-related protein
